# Key:
# Assay in all cases: BLI
# [1] = molecular target: C12b-AM1 monobody
# [2] = molecular target: C12b-AM2 monobody
# [3] = molecular target: C4-AM1 monobody
# [4] = molecular target: C4-AM2 monobody
# [5] = molecular target: C6b-AM2 monobody
substance,measurement,setting,value
"SARS-CoV-2 S protein receptor-binding domain, wild type (B.1.1) (from UniProt P0DTC2) (domain or fragment)",Kd,[1],1 nM
same,Kd,[2],< 0.01 nM
same,Kd,[3],0.11 nM
same,Kd,[4],< 0.01 nM
same,Kd,[5],0.36 nM

# Source: paper PMC8906176
